Assay results published in US20230097381A1, “COMPOSITION, KIT AND METHOD FOR DIAGNOSIS AND TREATMENT OF PROSTATE CANCER” (RADIOMEDIX, INC., priority 2020, published 2023).

Tests used:
[1] = test system: LNCap and 22Rv1 xenografts; set-up: species or system R2G2 strain of mice; settings: mouse, in vivo
Protocol: […] strains of mice bearing LNCap and 22Rv1 xenografts were injected via the tail vein with 50-100 μCi of ^64Cu-DOTAM-PSMA reconstituted in 150-200 μL of saline. At 1 h, 2 h, and 24 hrs. post injection, while under anesthesia blood was collected by cardiac puncture and mice were sacrificed by cervical dislocation. The heart, lung liver, stomach, pancreas, spleen fat, kidney, muscle, intestines, skin and tumor were collected. Each organ was weighed, and the tissue radioactivity was measured with an automated gamma counter (2470 Wizard2 Gamma Counter, Perkin-Elmer, Waltham, Mass.). The percentage of injected dose per gram of tissue (% ID/g) was calculated. All measurements were corrected for decay.

in vivo [2] = assay: in vivo; set-up: species or system athymic nude mice; settings: athymic nude, mouse, iv, total radioactivity
Protocol: Mice bearing LNCap and 22Rv1 xenografts were injected via the tail vein with 50-100 μCi of ^64Cu-DOTAM-PSMA reconstituted in 150-200 μL of saline. At 1 h, 2 h, and 24 hrs. post injection, while under anesthesia blood was collected by cardiac puncture and mice were sacrificed by cervical dislocation. The heart, lung liver, stomach, pancreas, spleen fat, kidney, muscle, intestines, skin and tumor were collected. Each organ was weighed, and the tissue radioactivity was measured with an automated gamma counter (2470 Wizard2 Gamma Counter, Perkin-Elmer, Waltham, Mass.). The percentage of injected dose per gram of tissue (% ID/g) was calculated. All measurements were corrected for decay.

[3] = test system: PSMA-overexpressing LNCap and 22Rv1-derived xenografts; set-up: species or system Athymic Nude Mice; settings: mouse, in vivo
Protocol: About 5×10^6 LNCap and 22Rv1 cells suspended in 100 μL of RPMI 1640 with 50% Matrigel (Corning, Corning, N.Y.) were subcutaneously injected into upper flank of 6-7-week-old mice. Xenografts were generated in Athymic Nude Mice (Envigo, Indianapolis, Ind. and Taconic, Rensselaer, N.Y.). When xenograft tumor reached the size of 0.25 cm^3 in diameter, all mice were randomly divided in groups for PET imaging and biodistribution studies.
PET/X-Ray imaging studies were performed using GENISYS^4 scanner (Sofie Bioscience, Curlver City, Calif.). Mice were anesthetized using with isoflurane (2% in 98% oxygen) and their temperature was kept at 38° C. with a heating lamp during injection of the agent and image acquisition All images were corrected for photon attenuation, but scatter correction was not applied. Maximum-Likehood Expectation Maximization was used to create final images volumes. Static PET scans were acquired approximately at 1 h, 2 h, 4 h after intravenous injection of ^64Cu-DOTAM-PSMA in 200 μL volume. The image acquisition time was 10 minutes. VivoQuant software (Invicro, Boston, Mass.) was used to determine the ROI (Sum) for tumor, liver, kidney, muscle and salivary gland which were equivalent to % ID/g uptake of agent at various time points.

in vivo [4] = assay: in vivo; set-up: species or system athymic nude mice; settings: athymic nude, mouse, iv, 40 uCi, total radioactivity
Protocol: (§1) Athymic strains of mice bearing LNCap xenografts were injected via the tail vein with 40 μCi of ^203Pb-DOTAM-PSMA reconstituted in 200-250 μL of saline. At 1 h and 3 h post injection, while under anesthesia blood was collected by cardiac puncture and mice were sacrificed by cervical dislocation. The heart, lung liver, stomach, pancreas, spleen fat, kidney, muscle, intestines, skin and tumor were collected. Each organ was weighed, and the tissue radioactivity was measured with an automated gamma counter (2470 Wizard2 Gamma Counter, Perkin-Elmer, Waltham, Mass.). The percentage of injected dose per gram of tissue (% ID/g) was calculated. All measurements were corrected for decay.

LNCap xenografts [5] = assay: in vivo; set-up: species or system athymic nude mice; settings: mouse
Protocol: as §1

in vivo [6] = assay: in vivo; set-up: species or system athymic nude mice; settings: athymic nude, mouse, iv, 15 uCi, total radioactivity
Protocol: as §1, with “with 15” for “with 40”, “of ^212Pb-DOTAM-PSMA” for “of ^203Pb-DOTAM-PSMA”, “in 150-200” for “in 200-250”, “1 h,” for “1 h and”, “3 h,” for “3 h”, “calculated. AH” for “calculated. All”

LNCap xenografts [7] = assay: in vivo; set-up: species or system athymic nude mice; settings: mouse; remark: listed apart in the source
Protocol: as §1, with “with 15” for “with 40”, “of ^212Pb-DOTAM-PSMA” for “of ^203Pb-DOTAM-PSMA”, “in 150-200” for “in 200-250”, “1 h,” for “1 h and”, “3 h,” for “3 h”, “calculated. AH” for “calculated. All”

NC(=O)CN1CCN(CC(N)=O)CCN(CC(=O)N[C@H](Cc2ccccc2)C(=O)N[C@H](Cc2ccccc2)C(=O)N[C@H](CCCCNC(=O)CCCCCCC(=O)NCCCC[C@H](NC(=O)N[C@@H](CCC(=O)O)C(=O)O)C(=O)O)C(=O)O)CCN(CC(N)=O)CC1 [^64Cu-DOTAM-PSMA, metal not drawn]
liver retention of trans-chelated Cu64, comparison of strains [1]: higher in R2G2 mice strain compared to NOG strain but it was still lower the one observed in athymic nude
tumor retention, R2G2 strain versus NOG strain [1]: much more favorable in R2G2 strain than NOG strain
tissue uptake at 24 h (in vivo [2]; Retention in tumor): 10 ± 11.1 %ID/g
tissue uptake at 2 h (in vivo [2]; Tumor uptake): 24.8 ± 31.1 %ID/g
tissue uptake at 4 h (in vivo [2]; Tumor uptake): 9.7 ± 10.9 %ID/g
tissue uptake at 2 h (in vivo [2]; off-target accumulation in kidneys): 20 ± 2.9 %ID/g
tissue uptake at 2 h (in vivo [2]; off-target accumulation in liver): 45.8 ± 6.2 %ID/g
tissue uptake at 4 h (in vivo [2]; renal retention): 13 ± 0.6 %ID/g
tissue uptake at 24 h (in vivo [2]; uptake in kidneys): 7.8 ± 7.9 %ID/g
tissue uptake at 24 h (in vivo [2]; uptake in liver): 12.4 ± 11.9 %ID/g
highest non-target uptake of agent (organ) [3]: liver
retention in LNCap and 22Rv1-derived tumors (microPET) [3]: confirmed retention
tumor retention in LNCap and 22Rv1 cancer cells (microPET) [3]: confirmed its tumor retention

NC(=O)CN1CCN(CC(N)=O)CCN(CC(=O)N[C@H](Cc2ccccc2)C(=O)N[C@H](Cc2ccccc2)C(=O)N[C@H](CCCCNC(=O)CCCCCCC(=O)NCCCC[C@H](NC(=O)N[C@@H](CCC(=O)O)C(=O)O)C(=O)O)C(=O)O)CCN(CC(N)=O)CC1 [^203Pb-DOTAM-PSMA, metal not drawn]
tissue uptake at 1 h (in vivo [4]): 16.1 ± 0.8 %ID/g
tissue uptake at 3 h (in vivo [4]): > 4.8 %ID/g
decrease of renal retention (LNCap xenografts [5]): 32%
normal organs distribution, ^203Pb- versus ^212Pb-DOTAM-PSMA (LNCap xenografts [5]): very similar normal organs distribution

NC(=O)CN1CCN(CC(N)=O)CCN(CC(=O)N[C@H](Cc2ccccc2)C(=O)N[C@H](Cc2ccccc2)C(=O)N[C@H](CCCCNC(=O)CCCCCCC(=O)NCCCC[C@H](NC(=O)N[C@@H](CCC(=O)O)C(=O)O)C(=O)O)C(=O)O)CCN(CC(N)=O)CC1 [^212Pb-DOTAM-PSMA, metal not drawn]
tissue uptake at 1 h (in vivo [6]; Tumor uptake): 5.7 ± 0.9 %ID/g
tissue uptake at 3 h (in vivo [6]; Tumor uptake): 7.2 ± 2.6 %ID/g
tissue uptake at 1 h (in vivo [6]; renal retention): 32.2 ± 15.6 %ID/g
tissue uptake at 3 h (in vivo [6]; renal retention): 17.7 ± 9.4 %ID/g
decrease of renal retention (LNCap xenografts [7]): 55%
uptake in bone and spleen (LNCap xenografts [7]): not uptake of agent in bone and spleen
